Test results from US20030147883A1.

Columns and labels:
[1] = target: FPR-like receptor 1 (FPRL1) (UniProt P25090); assay: cell-based or functional assay
[2] = target: Epitope tagged high affinity fMLP receptor FPR (on ETFR cells) (UniProt P21462); assay: cell-based or functional assay
Chain of Epitope tagged high affinity fMLP receptor FPR (on ETFR cells) (P21462 whole entry): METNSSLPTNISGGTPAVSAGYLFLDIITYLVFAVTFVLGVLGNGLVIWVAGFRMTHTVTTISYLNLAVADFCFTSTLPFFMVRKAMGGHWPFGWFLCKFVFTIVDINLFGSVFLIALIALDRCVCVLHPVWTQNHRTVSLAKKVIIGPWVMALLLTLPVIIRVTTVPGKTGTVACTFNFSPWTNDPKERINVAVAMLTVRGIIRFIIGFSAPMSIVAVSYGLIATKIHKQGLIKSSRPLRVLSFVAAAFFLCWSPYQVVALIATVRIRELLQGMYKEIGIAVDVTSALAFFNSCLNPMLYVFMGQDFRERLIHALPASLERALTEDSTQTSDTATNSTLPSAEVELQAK

Chain of FPR-like receptor 1 (FPRL1) (P25090 whole entry): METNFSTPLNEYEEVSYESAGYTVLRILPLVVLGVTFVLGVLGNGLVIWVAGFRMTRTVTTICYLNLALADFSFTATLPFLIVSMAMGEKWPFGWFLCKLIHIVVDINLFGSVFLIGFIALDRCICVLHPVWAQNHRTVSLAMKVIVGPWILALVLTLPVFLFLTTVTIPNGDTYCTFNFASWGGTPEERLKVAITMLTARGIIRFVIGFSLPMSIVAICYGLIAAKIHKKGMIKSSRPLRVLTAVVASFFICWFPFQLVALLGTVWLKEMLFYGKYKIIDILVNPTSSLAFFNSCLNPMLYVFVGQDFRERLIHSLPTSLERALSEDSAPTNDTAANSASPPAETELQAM

## N-formyl-methionyl-leucyl-phenylalanine (fMLP) (peptide)
[1]
  cross-desensitization of Ca^2+ flux in FPRL1/293 cells: 100000 fold excess
[2]
  Ca^2+ mobilization in ETFR cells, minimal effective dose: 100 pM
